Values belong to the binder of their own block, whether it stands above or below them.
Tests used:
[1] = target: Human uPAR DII-DIII domain HisAvi Tag (human, biotinylated (site not stated)); test: BLI (Octet), biotinylated domain on SA sensor, antibody 200 nM
[2] = target: T1, histidine-tagged human uPAR (Sino#10925-H08H) (human, UniProt Q03405 23-303); test: BLI (Octet), uPAR on sensor, antibody in solution (avidity)
T1 construct: also called uPAR-His

[3] = target: T1, histidine-tagged human uPAR …; test: BLI (Octet), antibody on anti-mouse Fc sensor, uPAR in solution
biotinylated human uPAR [4] = target: T2, biotinylated human uPAR (human, UniProt Q03405 23-303, limits assumed, biotinylated (site not stated)); test: BLI (Octet) on biotinylated human uPAR; row 'None': no first antibody
[5] = target: T3, human uPAR expressed on HEK293 cells (human, UniProt Q03405 23-305); test: flow cytometry, HEK293 cells expressing human uPAR, 100 nM uPA present
T3 construct: whole, on cells; also called Hu-uPAR

mouse uPAR on cells [6] = target: T4, mouse uPAR on cells (mouse, UniProt P35456 24-298); test: flow cytometry, HEK293 cells expressing mouse uPAR, 100 nM uPA present
T4 construct: whole, on cells; also called Ms-uPAR; mouse uPAR (CD87)
T4 sequence (looked up): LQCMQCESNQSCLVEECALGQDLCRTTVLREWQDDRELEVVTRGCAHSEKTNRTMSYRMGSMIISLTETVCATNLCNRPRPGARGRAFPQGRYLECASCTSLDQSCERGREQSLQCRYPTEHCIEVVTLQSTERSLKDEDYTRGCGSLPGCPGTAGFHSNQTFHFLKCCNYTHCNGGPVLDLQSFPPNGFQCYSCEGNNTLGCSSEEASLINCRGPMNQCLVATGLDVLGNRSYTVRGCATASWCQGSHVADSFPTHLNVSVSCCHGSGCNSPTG

biotinylated human uPAR [7] = target: T2, biotinylated human uPAR; test: BLI (Octet) competition on biotinylated human uPAR; competitor (first antibody): M1
biotinylated human uPAR [8] = target: T2, biotinylated human uPAR; test: BLI (Octet) competition on biotinylated human uPAR; competitor (first antibody): M5
biotinylated human uPAR [9] = target: T2, biotinylated human uPAR; test: BLI (Octet) competition on biotinylated human uPAR; competitor (first antibody): ATN-368 (ATN-658)
[10] = target: Recombinant human uPAR his (R&D Systems, 807-UK-100/CF) (human, UniProt Q03405 23-303, biotinylated (sites not given)); test: SPR (Biacore), biotinylated human uPAR his on streptavidin chip
mouse uPAR on cells [11] = target: T4, mouse uPAR on cells; test: flow cytometry on 4T1 cells (express mouse uPAR), anti-His detection
mouse uPAR on cells [12] = target: T4, mouse uPAR on cells; test: flow cytometry on CT26 cells (express mouse uPAR), anti-His detection
mouse uPAR on cells [13] = target: T4, mouse uPAR on cells; test: flow cytometry on MC38 cells (express mouse uPAR), anti-His detection
[14] = target: IL-2/IL-15 receptor on primary mouse splenocytes (mouse); test: cell-based or functional assay
[15] = target: T5, Recombinant mouse uPAR-Fc (R&D Systems, Cat. No. 531-PA-100) (mouse, UniProt P35456 24-297, limits assumed); test: SPR (Biacore), mouse uPAR-Fc captured on anti-human antibody chip
T5 construct: not shown: Fc of the bought fusion (captured with the human antibody capture kit); not described
T5 sequence (looked up): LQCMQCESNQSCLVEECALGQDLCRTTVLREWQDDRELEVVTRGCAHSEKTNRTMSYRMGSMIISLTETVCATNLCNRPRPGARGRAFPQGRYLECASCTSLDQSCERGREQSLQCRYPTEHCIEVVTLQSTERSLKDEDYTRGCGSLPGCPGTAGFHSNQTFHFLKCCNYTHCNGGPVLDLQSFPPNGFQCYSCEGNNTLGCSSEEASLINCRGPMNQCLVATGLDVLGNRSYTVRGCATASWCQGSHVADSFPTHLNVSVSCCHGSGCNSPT

[16] = target: human 4-1BB on 4-1BB effector cells (human, UniProt Q07011 24-255); test: cell-based or functional assay
Sequence of human 4-1BB on 4-1BB effector cells (Q07011 24-255): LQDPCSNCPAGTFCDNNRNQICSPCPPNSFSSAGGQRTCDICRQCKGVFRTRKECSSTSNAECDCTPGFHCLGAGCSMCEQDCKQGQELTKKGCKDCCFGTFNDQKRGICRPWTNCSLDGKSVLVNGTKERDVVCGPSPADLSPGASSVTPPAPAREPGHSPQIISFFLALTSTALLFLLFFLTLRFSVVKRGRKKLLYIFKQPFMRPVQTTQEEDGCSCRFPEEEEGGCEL

binding result [1]: binds | Kd [2]: < 1 pM | koff [2]: < 1e-07 s⁻¹ | kon [2]: 311000 M⁻¹ s⁻¹ | Kd [3]: 1.08 nM | koff [3]: 0.00063 s⁻¹ | kon [3]: 584000 M⁻¹ s⁻¹ | response in competition assay (biotinylated human uPAR [4]): 0.284 | EC50 [5]: 0.54 nM | EC50 (mouse uPAR on cells [6]): 31.4 nM | response in competition assay (biotinylated human uPAR [7]): 0.302 | response in competition assay (biotinylated human uPAR [8]): 0.321 | response in competition assay (biotinylated human uPAR [9]): 0.31
B1: M8 (antibody, V domains shown)
VH: QIQLVQSGPELKKPGETVKISCKASGNTFTDYGMNWVKQSPGKGLKWMGWINTNTGEPTYADDFKGRFAFSLETSASTAYLQINNLKNEDMATYFCAHYSFDYWGQGTTLTVSS
VL: DIQMTQSPASLSVSVGQTVTITCRTSENIYSNLAWYQQKPGKSPQLLVYAATNLADGVPSRFSGSGSGTQYSLKINSLQSEDFGSYYCQHFWGTPWTFGGGTKLEIK
notes: Mouse hybridoma antibody; also called anti-uPAR antibody M8; parental M8

binding result [1]: binds | Kd [2]: < 1 pM | koff [2]: < 1e-07 s⁻¹ | kon [2]: 28300 M⁻¹ s⁻¹ | Kd [3]: 33.1 nM | koff [3]: 0.000962 s⁻¹ | kon [3]: 29100 M⁻¹ s⁻¹ | response in competition assay (biotinylated human uPAR [4]): 0.181 | EC50 [5]: 2.53 nM | EC50 (mouse uPAR on cells [6]): 93.8 nM | response in competition assay (biotinylated human uPAR [7]): 0.161 | response in competition assay (biotinylated human uPAR [8]): -0.0173 | response in competition assay (biotinylated human uPAR [9]): 0.179
B2: M5 (antibody, V domains shown)
VH: QVQLKESGPGLVAPSQSLSITCTVSGFSLTNYGVHWVRQPPGKDLEWLVVIWSDGGTTYNSALKSRLSISKDNSKSQVFLKMNSLQTDDTAMYYCARGGRSDLFAYWGQGTLVTVSA
VL: DVLMTQTPLSLPVSLGDQASISCRSSQSIVHSNGNTYLEWYLQKPGQSPKLLIYKVSNRFSGVPDRFSGSGSGTDFTLKISRVEAEDLGVYYCFQGSHVPYTFGGGTKLEIK
notes: Mouse hybridoma antibody; also called anti-uPAR antibody M5; parental M5

Kd [10]: 0.24 nM | koff [10]: 0.00035 s⁻¹ | kon [10]: 1.5e+06 M⁻¹ s⁻¹ | EC50 (mouse uPAR on cells [11]): 0.22 nM | EC50 (mouse uPAR on cells [12]): 1.1 nM | EC50 (mouse uPAR on cells [13]): 0.42 nM
B3: Human uPA-ATF:His6 (ligand)
chain: SNELHQVPSNCDCLNGGTCVSNKYFSNIHWCNCPKKFGGQHCEIDKSKTCYEGNGHFYRGKASTDTMGRPCLPWNSATVLQQTYHAHRSDALQLGLGKHNYCRNPDNRRRPWCYVQVGLKPLVQECMVHDCAHHHHHH
notes: also called 103

pSTAT5 EC50, mouse NK cells [14]: 0.15 nM | pSTAT5 EC50, mouse Tregs [14]: 1.7 nM | pSTAT5 EC50, mouse memory CD8 T cells [14]: 0.5 nM | Kd [15]: 0.14 nM | koff [15]: 0.0002 s⁻¹ | kon [15]: 1.5e+06 M⁻¹ s⁻¹ | EC50 (mouse uPAR on cells [13]): 0.41 nM
B4: His6:Mouse uPA-ATF:mouse IL-15Ra:cpIL-15 (other)
chain: HHHHHHGSVLGAPDESNCGCQNGGVCVSYKYFSRIRRCSCPRKFQGEHCEIDASKTCYHGNGDSYRGKANTDTKGRPCLAWNAPAVLQKPYNAHRPDAISLGLGKHNYCRNPDNQKRPWCYVQIGLRQFVQECMVHDCGGSGGTTCPPPVSIEHADIRVKNYSVNSRERYVCNSGFKRKAGTSTLIECVINKNTNVAHWTTPSLKCIRDGGSELEEKTFTEFLQSFIRIVQMFINGGGSNWIDVRYDLEKIESLIQSIHIDTTLYTDSDFHPSCKVTAMNCFLLELQVILHEYSNMTLNETVRNVLYLANSTLSSNKNVAESGCKEC
notes: also called 102

binding result [1]: binds | Kd [2]: < 1 pM | koff [2]: < 1e-07 s⁻¹ | kon [2]: 554000 M⁻¹ s⁻¹ | Kd [3]: 7.47 nM | koff [3]: 0.00883 s⁻¹ | kon [3]: 1.18e+06 M⁻¹ s⁻¹ | response in competition assay (biotinylated human uPAR [4]): 0.295 | EC50 [5]: 0.3 nM | EC50 (mouse uPAR on cells [6]): 2.83 nM | response in competition assay (biotinylated human uPAR [7]): 0.312 | response in competition assay (biotinylated human uPAR [8]): 0.0175 | response in competition assay (biotinylated human uPAR [9]): 0.342
B5: M43 (antibody, V domains shown)
VH: QVQLQQSGAELARPGASVNLSCKASGYTFTSYGISWVKQRTGQGLEWIGEIYPRSGNTYYNEKFKGKATLTADKSSRTAYMELRSLTSEDSAVYFCAGKDYGSTYADYWGQGTTLTVSS
VL: QIVLTQSPAIMSASPGEKVTMTCSASSSVSSRYLHWYQQKSGASPKLWIYGTSNLASGVPARFSGSGSGTSYSLTINSVEAEDAATYYCQQYHSDPLTFGAGTKLELK
notes: Mouse hybridoma antibody; also called anti-uPAR antibody M43; parental M43

EC50, luciferase 4-1BB Bioassay [16]: 0.1 nM | Emax (luciferase units), 4-1BB Bioassay [16]: 330000 luciferase units
B6: Linked human 4-1BBL Trimer: Human uPA-ATF (other)
chain: SNELHQVPSNCDCLNGGTCVSNKYFSNIHWCNCPKKFGGQHCEIDKSKTCYEGNGHFYRGKASTDTMGRPCLPWNSATVLQQTYHAHRSDALQLGLGKHNYCRNPDNRRRPWCYVQVGLKPLVQECMVHDCAGGSGGREGPELSPDDPAGLLDLRQGMFAQLVAQNVLLIDGPLSWYSDPGLAGVSLTGGLSYKEDTKELVVAKAGVYYVFFQLELRRVVAGEGSGSVSLALHLQPLRSAAGAAALALTVDLPPASSEARNSAFGFQGRLLHLSAGQRLGVHLHTEARARHAWQLTQGATVLGLFRVTPEIPAGLPSPRSEGSGREGPELSPDDPAGLLDLRQGMFAQLVAQNVLLIDGPLSWYSDPGLAGVSLTGGLSYKEDTKELVVAKAGVYYVFFQLELRRVVAGEGSGSVSLALHLQPLRSAAGAAALALTVDLPPASSEARNSAFGFQGRLLHLSAGQRLGVHLHTEARARHAWQLTQGATVLGLFRVTPEIPAGLPSPRSEGSGREGPELSPDDPAGLLDLRQGMFAQLVAQNVLLIDGPLSWYSDPGLAGVSLTGGLSYKEDTKELVVAKAGVYYVFFQLELRRVVAGEGSGSVSLALHLQPLRSAAGAAALALTVDLPPASSEARNSAFGFQGRLLHLSAGQRLGVHLHTEARARHAWQLTQGATVLGLFRVTPEIPAGLPSPRSE
